Laboratory results: patent US20250376533A1 (FUTUREGEN BIOPHARMACEUTICAL BEIJING, published 2025)
Numbering of substitutions follows the chain as printed. Numbers in names are those of the source.

T1: rat CD40 antigen (ACROBiosystems) (rat, UniProt A6JXD6 20-193)
T1 construct: Bought antigen coated on ELISA plates; construct not described
T1 sequence: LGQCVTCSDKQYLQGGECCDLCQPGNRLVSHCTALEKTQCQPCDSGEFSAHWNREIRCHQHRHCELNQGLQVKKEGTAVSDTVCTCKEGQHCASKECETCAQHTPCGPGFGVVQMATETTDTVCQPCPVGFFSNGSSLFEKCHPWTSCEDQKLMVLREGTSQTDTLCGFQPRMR

B1: anti-PD-L1/CD40 bispecific antibody 1606 (bispecific antibody, human IgG2, kappa)
light: DIQMTQSPSSLSASVGDRVTITCRASQDIRNYLNWYQQKPGKAPKLLIYYTSRRDSGVPSRFSGSGSGTDYTLTISSLQPEDFATYFCQQGKTLPWTFGGGTKVEIKRTVAAPSVFIFPPSDEQLKSGTASVVCLLNNFYPREAKVQWKVDNALQSGNSQESVTEQDSKDSTYSLSSTLTLSKADYEKHKVYACEVTHQGLSSPVTKSFNRGEC
heavy: EVQLVESGGGLVQPGGSLRLSCAASGFTFSDYYMSWVRQAPGKGLEWVGFIRNKANGYTTEYAASVKGRFTISRDNSKNTLYLQMNSLRAEDTAVYYCARYGGLRQGWYFDVWGQGTLVTVSSASTKGPSVFPLAPCSRSTSESTAALGCLVKDYFPEPVTVSWNSGALTSGVHTFPAVLQSSGLYSLSSVVTVPSSNFGTQTYTCNVDHKPSNTKVDKTVERKCCVECPPCPAPPVAGPSVFLFPPKPKDTLMISRTPEVTCVVVDVSHEDPEVQFNWYVDGVEVHNAKTKPREEQFNSTFRVVSVLTVVHQDWLNGKEYKCKVSNKGLPAPIEKTISKTKGQPREPQVYTLPPSREEMTKNQVSLTCLVKGFYPSDIAVEWESNGQPENNYKTTPPMLDSDGSFFLYSKLTVDKSRWQQGNVFSCSVMHEALHNHYTQKSLSLSPGGGGGSGGGGSGGGGSGEVQLVESGGGLVQPGGSLRLSCAASGFTFDYYTQCWFRQAPGKEREWVSCISSSEGSTYYADSVKGRFTISRDNSKNTVYLQMNSLKTEDTAVYYCAARKGGPLTIENFFDYWGQGTQVTVSS
notes: First polypeptide chain = anti-CD40 light chain; second polypeptide chain = anti-CD40 heavy chain with the 1541 VHH joined to its C-terminus by a G4S linker
B2: anti-PD-L1/CD40 bispecific antibody 1654 (bispecific antibody, human IgG2, kappa)
light: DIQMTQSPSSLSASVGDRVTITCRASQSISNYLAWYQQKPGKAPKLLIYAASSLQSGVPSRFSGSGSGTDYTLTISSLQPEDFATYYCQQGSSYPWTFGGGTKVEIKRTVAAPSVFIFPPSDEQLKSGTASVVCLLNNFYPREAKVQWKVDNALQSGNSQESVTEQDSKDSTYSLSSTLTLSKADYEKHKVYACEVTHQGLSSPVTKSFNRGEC
heavy: B1 heavy with D31N, G57A, N79S, S87R, R105K, Q106V, V112L
notes: as for B1
B3: anti-PD-L1/CD40 bispecific antibody 1608 (bispecific antibody, human IgG2, kappa)
light: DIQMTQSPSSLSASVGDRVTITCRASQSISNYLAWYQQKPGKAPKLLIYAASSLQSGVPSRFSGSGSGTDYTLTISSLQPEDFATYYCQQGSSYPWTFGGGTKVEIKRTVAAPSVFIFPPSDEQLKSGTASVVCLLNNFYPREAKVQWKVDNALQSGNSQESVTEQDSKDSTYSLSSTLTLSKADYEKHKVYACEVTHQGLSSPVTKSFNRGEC
heavy: B1 heavy with D31N, N79S, S87R, R105K, Q106V, V112L
notes: as for B1
B4: anti-PD-L1/CD40 bispecific antibody 1609 (bispecific antibody, human IgG2, kappa)
light: B1 light with D28T, R30S, N31S, R53T, R54L, D55Q, F87Y, K92N, T93A, L94Y
heavy: B1 heavy with D31N, N79S, R105K, Q106I, V112L
notes: as for B1
B5: anti-PD-L1/CD40 bispecific antibody 1652 (bispecific antibody, human IgG2, kappa)
light: B1 light
heavy: B1 heavy with G57A
notes: as for B1
B6: anti-PD-L1/CD40 bispecific antibody 1655 (bispecific antibody, human IgG2, kappa)
light: B1 light with D28T, R30S, N31S, R53T, R54L, D55Q, F87Y, K92N, T93A, L94Y
heavy: B1 heavy with D31N, G57A, N79S, R105K, Q106I, V112L
notes: as for B1
B7: anti-PD-L1/CD40 bispecific antibody 1607 (bispecific antibody, human IgG2, kappa)
light: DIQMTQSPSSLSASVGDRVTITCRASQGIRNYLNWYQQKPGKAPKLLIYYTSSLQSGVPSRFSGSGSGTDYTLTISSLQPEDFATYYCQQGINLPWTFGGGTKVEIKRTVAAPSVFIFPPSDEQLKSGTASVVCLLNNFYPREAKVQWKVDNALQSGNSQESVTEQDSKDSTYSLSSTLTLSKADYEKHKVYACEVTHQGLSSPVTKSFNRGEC
heavy: B1 heavy with N79S, R105K, Q106K, V112L
notes: as for B1

Target: T2, human CD40 antigen (ACROBiosystems) (human, UniProt P25942 21-193)
T2 construct: Bought antigen coated on ELISA plates; construct not described
Assay: bridging ELISA: coated human CD40, serially diluted bispecific antibody, detection with biotin-labeled human PD-L1 and streptavidin-HRP, OD450
Description: Antigen human CD40 (purchased from ACROBiosystems) was coated with 1 μg/mL carbonate buffer (pH=9.6) in an ELISA plate at 100 μL per well, followed by incubation at 4° C. overnight. The wells were washed 5 times with PBST. 300 μL/well of PBST containing 1% BSA was added to block the wells, and the plate was incubated at room temperature for 1 hour. The wells were washed 5 times with PBST. […] The wells were washed 5 times with PBST. Biotin-labeled human PD-L1 (FutureGen Biopharmaceutical) diluted with PBST containing 1% BSA was added at 100 μL per well, and the plate was incubated at room temperature for 1 hour. The wells were washed 5 times with PBST. Streptavidin-HRP (BioLegend, Cat. No. 405210) diluted with PBST containing 1% BSA was added at 100 μL per well, and the plate was incubated at room temperature for 30 minutes. Colorimetric substrate TMB was added at 100 μL per well and allowed to develop color at room temperature for 10 minutes, followed by the addition of 1 M sulfuric acid to terminate the reaction. The OD_[…] was read on a microplate reader to analyze the results, and the EC₅₀ was calculated using a 4-parameter fit binding curve.

T2 sequence (P25942 21-193 limits assumed): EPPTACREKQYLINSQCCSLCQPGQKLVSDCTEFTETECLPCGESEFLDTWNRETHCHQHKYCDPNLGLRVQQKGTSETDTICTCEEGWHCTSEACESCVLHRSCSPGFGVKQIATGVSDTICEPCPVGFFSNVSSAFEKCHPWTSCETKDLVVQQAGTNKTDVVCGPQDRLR

| Binder | EC50 |
| --- | --- |
| B1 | 40 pM |
| B2 | 26 pM |
| B3 | 29 pM |
| B4 | 39 pM |
| B5 | 32 pM |
| B6 | 39 pM |
| B7 | 32 pM |

Target: T3, CD40 on HEK-Blue CD40L cells (InvivoGen) (UniProt P25942 21-277, limits assumed)
Assay: cell-based or functional assay

T3 sequence (P25942 21-277 limits assumed): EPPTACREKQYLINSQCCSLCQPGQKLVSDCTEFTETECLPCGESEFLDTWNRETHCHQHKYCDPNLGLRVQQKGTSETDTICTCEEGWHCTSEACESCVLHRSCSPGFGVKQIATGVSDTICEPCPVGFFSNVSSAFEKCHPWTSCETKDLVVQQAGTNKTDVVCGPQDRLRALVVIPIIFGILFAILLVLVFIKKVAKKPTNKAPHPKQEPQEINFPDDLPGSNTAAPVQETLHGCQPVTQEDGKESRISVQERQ

| Binder | CD40 agonistic activity (A)/(B) Ratio, EC50 without over with CHO/PD-L1 | CD40 agonistic activity EC50 (nM) with CHO/PD-L1 (B), SEAP reporter | CD40 agonistic activity EC50 (nM) without CHO/PD-L1 (A), SEAP reporter |
| --- | --- | --- | --- |
| B1 | 3.7 | 0.017 nM | 0.061 nM |
| B2 | 23.2 | 0.027 nM | 0.633 nM |
| B3 | 20.2 | 0.02 nM | 0.396 nM |
| B4 | 28 | 0.02 nM | 0.556 nM |
| B5 | 4.1 | 0.022 nM | 0.092 nM |
| B6 | 25.3 | 0.027 nM | 0.686 nM |
| B7 | 2.4 | 0.012 nM | 0.029 nM |

Target: T4, cynomolgus PD-L1 antigen (ACROBiosystems) (cynomolgus, UniProt G7PSE7 19-238)
T4 construct: Bought antigen coated on ELISA plates; construct not described
Assay: ELISA, coated antigen
Description: (§1) The binding ability of bispecific antibody to human PD-L1 and human CD40, as well as the species specificity, was detected using an enzyme-linked immunosorbent assay (ELISA). The specific method is as follows: human PD-L1, cynomolgus PD-L1, rat PD-L1, mouse PD-L1, human CD40, cynomolgus CD40, rat CD40, and mouse CD40 antigens (all purchased from ACROBiosystems) were coated with 1 μg/mL carbonate buffer (pH=9.6) in an ELISA plate at 100 μL per well, followed by incubation at 4° C. overnight. The wells were washed 5 times with PBST. 300 μL/well of PBST containing 1% BSA was added to block the wells, and the plate was incubated at room temperature for 1 hour. The wells were washed 5 times with PBST. […] The wells were washed 5 times with PBST. […] The wells were washed 5 times with PBST. Colorimetric substrate TMB was added at 100 μL per well and allowed to develop color at room temperature for 10 minutes, followed by the addition of 1 M sulfuric acid to terminate the reaction. The OD_{450 nm} was read on a microplate reader to analyze the results, and the EC₅₀ was calculated using a 4-parameter fit binding curve.
(§2) These bispecific antibodies are not able to bind to rat PD-L1 and CD40 or mouse PD-L1 and CD40.

T4 sequence (G7PSE7 entry or part of it): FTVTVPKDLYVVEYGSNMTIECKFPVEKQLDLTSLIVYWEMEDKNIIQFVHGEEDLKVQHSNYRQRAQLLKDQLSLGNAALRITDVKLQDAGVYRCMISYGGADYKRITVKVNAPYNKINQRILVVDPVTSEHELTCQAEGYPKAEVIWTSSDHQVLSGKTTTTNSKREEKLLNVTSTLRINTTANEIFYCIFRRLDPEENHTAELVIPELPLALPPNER

| Binder | EC50 |
| --- | --- |
| B1 | 22 pM |
| B2 | 45 pM |
| B3 | 19 pM |
| B4 | 16 pM |
| B5 | 18 pM |
| B6 | 23 pM |
| B7 | 19 pM |

Target: T5, rat PD-L1 antigen (ACROBiosystems) (rat, UniProt D4AE25 19-239)
T5 construct: Bought antigen coated on ELISA plates; construct not described
Assay: ELISA, coated antigen
Description: as §1, §2

T5 sequence (D4AE25 entry or part of it limits assumed): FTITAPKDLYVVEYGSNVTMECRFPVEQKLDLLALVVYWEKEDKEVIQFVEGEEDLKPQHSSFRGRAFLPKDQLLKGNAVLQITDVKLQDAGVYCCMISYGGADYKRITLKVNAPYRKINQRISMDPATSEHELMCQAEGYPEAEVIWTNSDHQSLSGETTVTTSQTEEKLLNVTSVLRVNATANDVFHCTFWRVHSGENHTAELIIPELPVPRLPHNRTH

| Binder | binding result |
| --- | --- |
| B1 | no binding |
| B2 | no binding |
| B3 | no binding |
| B4 | no binding |
| B5 | no binding |
| B6 | no binding |
| B7 | no binding |

Target: T6, mouse PD-L1 antigen (ACROBiosystems) (mouse, UniProt Q9EP73 19-239)
T6 construct: Bought antigen coated on ELISA plates; construct not described
Assay: ELISA, coated antigen
Description: as §1, §2

T6 sequence (Q9EP73 19-239 limits assumed): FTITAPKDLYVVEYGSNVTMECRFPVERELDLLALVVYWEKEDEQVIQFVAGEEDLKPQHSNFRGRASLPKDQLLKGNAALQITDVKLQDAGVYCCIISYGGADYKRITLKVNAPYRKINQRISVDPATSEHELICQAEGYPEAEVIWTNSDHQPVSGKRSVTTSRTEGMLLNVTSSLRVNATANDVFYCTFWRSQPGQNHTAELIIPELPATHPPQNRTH

| Binder | binding result |
| --- | --- |
| B1 | no binding |
| B2 | no binding |
| B3 | no binding |
| B4 | no binding |
| B5 | no binding |
| B6 | no binding |
| B7 | no binding |

Target: T7, cynomolgus CD40 antigen (ACROBiosystems) (cynomolgus, UniProt G7PG38 21-193)
T7 construct: Bought antigen coated on ELISA plates; construct not described
Assay: ELISA, coated antigen
Description: as §1, §2

| Binder | EC50 |
| --- | --- |
| B1 | 20 pM |
| B2 | 13 pM |
| B3 | 20 pM |
| B4 | 19 pM |
| B5 | 17 pM |
| B6 | 6 pM |
| B7 | 16 pM |

Target: T8, mouse CD40 antigen (ACROBiosystems) (mouse, UniProt P27512 24-193, limits assumed)
T8 construct: Bought antigen coated on ELISA plates; construct not described
Assay: ELISA, coated antigen
Description: as §1, §2

T8 sequence (P27512 24-193 limits assumed): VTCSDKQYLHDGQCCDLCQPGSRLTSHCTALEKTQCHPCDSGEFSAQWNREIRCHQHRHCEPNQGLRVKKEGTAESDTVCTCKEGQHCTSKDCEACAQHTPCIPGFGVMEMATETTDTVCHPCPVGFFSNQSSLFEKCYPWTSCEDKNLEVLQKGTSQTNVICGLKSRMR

| Binder | binding result |
| --- | --- |
| B1 | no binding |
| B2 | no binding |
| B3 | no binding |
| B4 | no binding |
| B5 | no binding |
| B6 | no binding |
| B7 | no binding |

Target: T9, human PD-L1 antigen (ACROBiosystems) (human, UniProt Q9NZQ7 19-238)
T9 construct: Bought antigen coated on ELISA plates
Assay: ELISA, coated antigen
Description: as §1, §2

T9 sequence (Q9NZQ7 19-238 limits assumed): as the sequence (G7PSE7 entry or part of it) above, with T33A, S34A, N62S, Q68R, R82Q, L173F, A185T, I192T, L215H counted along it

| Binder | EC50 |
| --- | --- |
| B1 | 39 pM |
| B2 | 31 pM |
| B3 | 38 pM |
| B4 | 34 pM |
| B5 | 35 pM |
| B6 | 39 pM |
| B7 | 36 pM |

Target: T1, rat CD40 antigen (ACROBiosystems)
Assay: ELISA, coated antigen
Description: as §1, §2

| Binder | binding result |
| --- | --- |
| B1 | no binding |
| B2 | no binding |
| B3 | no binding |
| B4 | no binding |
| B5 | no binding |
| B6 | no binding |
| B7 | no binding |

Target: T2, human CD40 antigen (ACROBiosystems)
Assay: ELISA, coated antigen
Description: as §1, §2

| Binder | EC50 |
| --- | --- |
| B1 | 24 pM |
| B2 | 13 pM |
| B3 | 22 pM |
| B4 | 21 pM |
| B5 | 21 pM |
| B6 | 25 pM |
| B7 | 20 pM |

Target: T3, CD40 on HEK-Blue CD40L cells (InvivoGen)
Assay: flow cytometry, competition with 10 nM Biotin-CD40L on HEK-Blue CD40L cells
Description: The blocking effect of bispecific antibodies on CD40/CD40L binding was tested using HEK-Blue CD40L cells that highly express CD40. The specific method is as follows: HEK-Blue CD40L cells were collected and resuspended in pre-cooled PBS containing 2% FBS at a density of 1E7 cells/mL, and then added to a 96-well plate at 50 μL per well, i.e., 5E5 cells/well. Biotin-CD40L (FutureGen Biopharmaceutical) and serially diluted bispecific antibody were then added at 50 μL per well, with a final concentration of Biotin-CD40L of 10 nM, and the plate was incubated at 4° C. for 1 hour. The wells were washed twice with pre-cooled PBS. Streptavidin-PE (BioLegend, Cat. No. 405203) diluted in pre-cooled PBS containing 2% FBS was added, and the plate was incubated at 4° C. for 30 minutes. The wells were washed twice with pre-cooled PBS. The cells were then resuspended in pre-cooled PBS containing 2% FBS and assayed by flow cytometry.

| Binder | IC50 |
| --- | --- |
| B1 | 780 pM |
| B2 | 7700 pM |
| B3 | 4540 pM |
| B4 | 3160 pM |
| B5 | 852 pM |
| B6 | 8630 pM |
| B7 | 703 pM |
